Measurements published in patent publication US20230312742A1 (Y MABS THERAPEUTICS, published 2023).

B1: 8DC-1 (anti-CD38 scFv-(G4S)4-huC825 anti DOTA scFv-linker-P53-linker-His tag) (bispecific antibody)
chain: QVQLKQSGPGLVHPSQSLSITCTVSGFSLTSYGVHWVRQSPGKGLEWLGVMWRGGSTDYNAAFMSRLNITKDNSKRQVFFKMNSLQADDTAIYYCAKSMITTGFVMDSWGQGTSVTVSSGGGGSGGGGSGGGGSGGGGSGGGGSGGGGSDIQLTQSPSSFSVSLGDRVTITCKASEDIYNRLTWYQQKPGNAPRLLISGATSLETGVPSRFSGSGSGKDYTLSITSLQTEDVATYYCQQYWSNPYTFGGGTKLEIRGGGGSGGGGSGGGGSGGGGSHVQLVESGGGLVQPGGSLRLSCAASGFSLTDYGVHWVRQAPGKGLEWLGVIWSGGGTAYNTALISRFTISRDNSKNTLYLQMNSLRAEDTAVYYCARRGSYPYNYFDAWGCGTLVTVSSGGGGSGGGGSGGGGSGGGGSGGGGSGGGGSQAVVTQEPSLTVSPGGTVTLTCGSSTGAVTASNYANWVQQKPGQCPRGLIGGHNNRPPGVPARFSGSLLGGKAALTLLGAQPEDEAEYYCALWYSDHWVIGGGTKLTVLGTPLGDTTHTSGKPLDGEYFTLQIRGRERFEMFRELNEALELKDAQAGKEPGGSGGAPHHHHHH
notes: SADA construct with the murine AT13/5 VH and VL; also called the murine antibody
B2: 8DC-2 (anti-CD38 scFv-(G4S)4-huC825 anti DOTA scFv-linker-P53-linker-His tag) (bispecific antibody)
chain: QVQLQESGPGLVRPSQTLSLTCTVSGFTFTSYGVHWVRQPPGRGLEWIGVMWRGGSTDYNAAFMSRVTMLVDTSKNQFSLRLSSVTAADTAVYYCAKSMITTGFVMDSWGQGSLVTVSSGGGGSGGGGSGGGGSGGGGSGGGGSGGGGSDIQMTQSPSSLSASVGDRVTITCKASEDIYNRLTWYQQKPGKAPKLLISGATSLETGVPSRFSGSGSGTDFTFTISSLQPEDIATYYCQQYWSNPYTFGQGTKVEIKGGGGSGGGGSGGGGSGGGGSHVQLVESGGGLVQPGGSLRLSCAASGFSLTDYGVHWVRQAPGKGLEWLGVIWSGGGTAYNTALISRFTISRDNSKNTLYLQMNSLRAEDTAVYYCARRGSYPYNYFDAWGCGTLVTVSSGGGGSGGGGSGGGGSGGGGSGGGGSGGGGSQAVVTQEPSLTVSPGGTVTLTCGSSTGAVTASNYANWVQQKPGQCPRGLIGGHNNRPPGVPARFSGSLLGGKAALTLLGAQPEDEAEYYCALWYSDHWVIGGGTKLTVLGTPLGDTTHTSGKPLDGEYFTLQIRGRERFEMFRELNEALELKDAQAGKEPGGSGGAPHHHHHH
notes: SADA construct with VL7 and VH10 (published huAT13/5 of Ellis et al.)

Tests used:
[1] = target: T1, CD38 on CD38(+) cancer cells (RPMI8226, Raji, Daudi) (UniProt P28907 1-300, limits assumed); assay: flow cytometry on Raji cells, detection with an anti-his tag antibody
T1 construct: whole, on cells; Endogenous CD38 on tumour cell lines; also called CD38(+) tumor cells; CD38(+) Raji cells

[2] = target: T1, CD38 on CD38(+) cancer cells (RPMI8226, …); assay: flow cytometry on RPMI 8226 cells, detection with an anti-his tag antibody
[3] = target: T2, human CD38 antigen (recombinant human CD38 protein) (human, UniProt P28907 43-300, limits assumed); assay: SPR, antibody captured on Protein-L chip, human CD38 in solution; murine antibody, not named
[4] = target: T2, human CD38 antigen (recombinant human …); assay: SPR, construct captured on immobilised protein-L (HC30M chip), human CD38 antigen flown over
[5] = target: T2, human CD38 antigen (recombinant human …); assay: SPR, antibody captured on Protein-L chip, human CD38 in solution

Binder | EC50 (read off the curve) [1] | EC50 (read off the curve) [2] | Kd [3] | koff [4] | kon [4] | Kd [5]
B1 | ~0.05 µg/mL | ~0.06 µg/mL | 7.4 nM | 0.0012 s⁻¹ | 160000 M⁻¹ s⁻¹ | –
B2 | – | – | – | 0.001 s⁻¹ | 6400 M⁻¹ s⁻¹ | 163 nM
